From US20020150885

Columns and labels:
[1] = molecular target: T1, N-Ac-LEVD-N′-ethoxycarbonyl R110 SEQ ID NO:9
T1 chain: LEVD

[2] = molecular target: T2, N-(Z-DEVD)-N′-acetyl-Rhodamine 110 SEQ ID NO:5
T2 chain: DEVD

[3] = molecular target: T3, N-(Z-VD)-N′-acetyl-Rhodamine 110
T3 chain: VD

[4] = molecular target: T4, N-Ac-DEVD-N′-hexyloxycarbonyl-R110 SEQ ID NO:5
T4 chain: DEVD

[5] = molecular target: T5, N-Ac-DEVD-N′-(ethylthio)carbonyl-R110 SEQ ID NO:5
T5 chain: DEVD

[6] = molecular target: T6, N-Z-DEVD-N′-ethoxycarbonyl-R110 SEQ ID NO:5
T6 chain: DEVD

[7] = molecular target: T7, N-Z-VD-N′-ethoxycarbonyl-R110
T7 chain: VD

[8] = molecular target: T8, N-Ac-DEVD-N′-octyloxycarbonyl-R110 SEQ ID NO:5
T8 chain: DEVD

[9] = molecular target: T9, N-Z-EVD-N′-ethoxycarbonyl-R110
T9 chain: EVD

[10] = molecular target: T10, N-Ac-DEVD-N′-ethoxycarbonyl-R110 SEQ ID NO:5
T10 chain: DEVD

[11] = molecular target: T11, N-(Z-YVAD)-N′-acetyl-Rhodamine 110 SEQ ID NO:2
T11 chain: YVAD

[12] = molecular target: T12, N-(Z-VAD)-N′-acetyl-Rhodamine 110
T12 chain: VAD

[13] = molecular target: T13, (Z-VAD)2-Rhodamine 110
T13 chain: VAD

[14] = molecular target: T14, (Z-YVAD)2-Rhodamine 110 SEQ ID NO:2
T14 chain: YVAD

B1: recombinant human caspase-7 (protein)
chain: AKPDRSSFVPSLFSKKKKNVTMRSIKTTRDRVPTYQYNMNFEKLGKCIIINNKNFDKVTGMGVRNGTDKDAEALFKCFRSLGFDVIVYNDCSCAKMQDLLKKASEEDHTNAACFACILLSHGEENVIYGKDGVTPIKDLTAHFRGDRCKTLLEKPKLFFIQACRGTELDDGIQADSGPINDTDANPRYKIPVEADFLFAYSTVPGYYSWRSPGRGSWFVQALCSILEEHGKDLEIMQILTRVNDRVARHFESQSDDPHFHEKKQIPCVVSMLTKELYFSQ
B1 was tested. Which “fluorescent signal of cleaved substrate” value [1] did it give?
Its value is “Caspase-7 gave virtually no signal”.

B2: Recombinant CPP32 protein (protein)
chain: SGISLDNSYKMDYPEMGLCIIINNKNFHKSTGMTSRSGTDVDAANLRETFRNLKYEVRNKNDLTREEIVELMRDVSKEDHSKRSSFVCVLLSHGEEGIIFGTNGPVDLKKITNFFRGDRCRSLTGKPKLFIIQACRGTELDCGIETDSGVDDDMACHKIPVEADFLYAYSTAPGYYSWRNSKDGSWFIQSLCAMLKQYADKLEFMHILTRVNRKVATEFESFSFDATFHAKKQIPCIVSMLTKELYFYH
How did the Km [2] turn out when B2 was run?
The Km was 154 µM.

What about the Vmax [2] of the same protein?
Its Vmax is 160 nmol/min.

And the Km [3]?
Its Km is 60 µM.

B3: recombinant human caspase-3 (protein)
chain: SGISLDNSYKMDYPEMGLCIIINNKNFHKSTGMTSRSGTDVDAANLRETFRNLKYEVRNKNDLTREEIVELMRDVSKEDHSKRSSFVCVLLSHGEEGIIFGTNGPVDLKKITNFFRGDRCRSLTGKPKLFIIQACRGTELDCGIETDSGVDDDMACHKIPVEADFLYAYSTAPGYYSWRNSKDGSWFIQSLCAMLKQYADKLEFMHILTRVNRKVATEFESFSFDATFHAKKQIPCIVSMLTKELYFYH
How did the “Cleavage by Caspase-3” value [4] turn out when B3 was run?
The value was “Good”.

What about the “Cleavage by Caspase-3” value [5] of the same protein?
Its value is “Good”.

What about the “Cleavage by Caspase-3” value [6] of the same protein?
Its value is “Good”.

What about the “Cleavage by Caspase-3” value [7] of the same protein?
The value was “Poor”.

And the “amount of enzyme needed for cleavage, against tri- and tetrapeptide substrates” value [7]?
The value was “a 50-fold greater amount of enzyme than needed for tri- and tetrapeptide substrates”.

And the “Cleavage by Caspase-3” value [8]?
The value was “Good”.

And the “Cleavage by Caspase-3” value [9]?
The value was “Fair”.

And the “Cleavage by Caspase-3” value [10]?
Its value is “Good”.

What about the “signal above the enzyme blank value (fluorescence of cleaved substrate)” value [1] of the same protein?
Its value is “a signal that was about 5-fold above the enzyme blank value”.

B4: recombinant human caspase-8 (protein)
chain: SESQTLDKVYQMKSKPRGYCLIINNHNFAKAREKVPKLHSIRDRNGTHLDAGALTTTFEELHFEIKPHDDCTVEQIYEILKIYQLMDHSNMDCFICCILSHGDKGIIYGTDGQEAPIYELTSQFTGLKCPSLAGKPKVFFIQACQGDNYQKGIPVETDSEEQPYLEMDLSSPQTRYIPDEADFLLGMATVNNCVSYRNPAEGTWYIQSLCQSLRERCPRGDDILTILTEVNYEVSNKDDKKNMGKQMPQPTFTLRKKLVFPSD
With B4 as the protein, how does the “signal to background ratio (fluorescence of cleaved substrate)” value [1] read?
Its value is “signal to background ratios of about 13 for caspase-6 to about 26 for caspase-8”.

B5: recombinant human caspase-6 (protein)
chain: AFYKREMFDPAEKYKMDHRRRGIALIFNHERFFWHLTLPERRGTCADRDNLTRRFSDLGFEVKCFNDLKAEELLLKIHEVSTVSHADADCFVCVFLSHGEGNHIYAYDAKIEIQTLTGLFKGDKCHSLVGKPKIFIIQACRGNQHDVPVIPLDVVDNQTEKLDTNITEVDAASVYTLPAGADFLMCYSVAEGYYSHRETVNGSWYIQDLCEMLGKYGSSLEFTELLTLVNRKVSQRRVDFCKDPSAIGKKQVPCFASMLTKKLHFFPKSN
How did the “signal to background ratio (fluorescence of cleaved substrate)” value [1] turn out when B5 was run?
The value was “signal to background ratios of about 13 for caspase-6 to about 26 for caspase-8”.

B6: Recombinant ICE protein (protein)
chain: NPAMPTSSGSEGNVKLCSLEEAQRIWKQKSAEIYPIMDKSSRTRLALIICNEEFDSIPRRTGAEVDITGMTMLLQNLGYSVDVKKNLTASDMTTELEAFAHRPEHKTSDSTFLVFMSHGIREGICGKKHSEQVPDILQLNAIFNMLNTKNCPSLKDKPKVIIIQACRGDSPGVVWFKDSVGVSGNLSLPTTEEFEDDAIKKAHIEKDFIAFCSSTPDNVSWRHPTMGSVFIGRLIEHMQEYACSCDVEEIFRKVRFSFEQPDGRAQMPTTERVTLTRCFYLFPGH
With B6 as the protein, how does the Km [11] read?
Its Km is 32 µM.

What about the Vmax [11] of the same protein?
Its Vmax is 96 nmol/min.

And the Km [12]?
The Km was 70 µM.

And the Vmax [12]?
The Vmax was 4 nmol/min.

What about the Km [13] of the same protein?
The Km was 21 µM.

And the Vmax [13]?
The Vmax was 9 nmol/min.

What about the Km [14] of the same protein?
Its Km is 6 µM.

What about the Vmax [14] of the same protein?
The Vmax was 14 nmol/min.

What about the Km [2] of the same protein?
Its Km is 12 µM.

What about the Vmax [2] of the same protein?
Its Vmax is 9 nmol/min.
